The term Kd denotes the equilibrium constant for the complex coming apart. Higher therefore signals a looser complex. The term koff denotes a measure of how fast the partners let go of each other. The low end stands for slow dissociation, the high end for fast dissociation.

B1: DH677.3 (human IgG1) (antibody, V domains shown)
VH: QVQLVQSGAEVQKPGASVKVSCKASGYTFASYDINWVRQATGQGLEWMGWMNPKTGNTGYAQKFQGRVTLTRNTSISTAYMELTSLRSEDTAVYYCATYRIIAAVGYRYFQYWGQGTLVTVSS
VL: DIQLTQSPSSLSASVGDSVTITCRASQGFGNYLAWYQQRPGKVPEVLIYAATTLQSGVPSRFSGSGSGTDFTLTISSLQPEDVATYYCQKYNSAPFTFGQGTRLEIK
B2: RhDH677.3 IgG1 (antibody, V domains shown)
VH: B1 VH with Q12K, V20L, A30T, T41P, L70M, N73D, I76T, T84S, T117A
VL: B1 VL with D1A, L4M, S18K, R39K, E45K, V46L, G57E
B3: RM JR4 IgG1 (antibody, V domains shown)
VH: EVQLVESGPGLVKPLETLSLTCAVPGGSIRRNYWSWIRQPPGKGLEWIGHSYGSGGSTNYNPSLESRVTLSVDTSKNLFSLKLTSVTAADTAVYYCARTVWYYTSGTHYFDHWGQGVLVTVSS
VL: QSVLTQPPSVSAAPGQKVTISCSGSSSNIGRSYVSWYQQVPGAAPKLLIYDTNKRPSGVSDRFSGSKSGSSASLAITGLQTGDEADYYCGAWDGSLNVHIFGSGTKLTVL
B4: RhDH827 IgG1 (antibody, V domains shown)
VH: EVQLVESGGGLVQPGGSLRLSCAASGFTFSNCAMHWVRQAPGKGLEWVAVISYHGSNKYYADYVKGRFTISRDNSKNMLYLQMNNLKLEDTAVYYCAREGGAPSGWALDYWGQGVLVTVSS
VL: SYELTQSPSVSVSPGQPASITCSGDKLGDKYACWYQQKPGQVPVLVIYEDTKRPSGIPERFSGSNSGNTATLTISGVEAGDEADYYCQAWDSITHVVFGGGTRLTVL
B5: DH827 (human IgG1) (antibody, V domains shown)
VH: EVQLVESGGGVVQPGRSLRLSCAASGFTFSNCAMHWVRQAPGKGLEWVAVISYHGSNKYYADYVKGRFTISRDNSKSTVYLQMNSPRAEDTAVYYCAKEGGAPSGWALDYWGQGTLVTVSS
VL: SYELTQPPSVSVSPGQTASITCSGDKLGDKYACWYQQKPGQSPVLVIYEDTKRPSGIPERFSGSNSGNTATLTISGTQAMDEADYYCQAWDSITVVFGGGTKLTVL
B6: synthetic gp41 peptide (residues 596-606) with C-terminal amidation (peptide)
chain: WGCSGKLICTT-NH2
modifications: ends and bridges not checked
B7: Rh7B2 IgG1 (antibody, V domains shown)
VH: EVQLVESGGGLVQPGGSLRLSCAASGFTFTEYYMSWVRQAPGKGLEWVSYISKNGEYSYYADSVKGRFTISRDNAKNSLSLQMSSLRAEDTAVYYCTRADGLTYFSELLQYIFDLWGQGVLVTVSS
VL: DIVMTQSPDSLAVSLGERVTINCKSSQTLLYSSNNRHSIAWYQQKPGQAPKLLIYWASMRLSGVPNRFSGSGSGTDFTLTISGLQAEDVAVYYCHQYSSHPPTFGQGTKVEIK

Holding throughout (experiment): SPR
Experiment [1] addresses monomeric full length single chain (FLSC), a covalent dimer of gp120BaL and CD4 (HIV-1 BaL | , UniProt P01730).
In experiment [2] the target is T1, V2 peptide corresponding to the clade A/E 92TH023 gp120 V2 loop sequence (residues 167-184) (HIV-1 clade A/E 92TH023).
Experiment [3] concerns the target T1, V2 peptide corresponding to the clade …. This is another data set of the same source.
In a further experiment the target is 7B2.
The target in experiment [4] is B6.
For experiment [5], the target named is B6.

Where a chain is given by its changes, count along the chain named. No end group written: not given here.

In experiment [1], B1 returned a Kd of 0.29 nM and a koff of 4.05e-05 s⁻¹.

Consider B2, for which, in experiment [1], binding was characterised by a dissociation constant (Kd) of 2.54 nM and the koff was 0.000189 s⁻¹.

In experiment [1], B3 had a Kd of 0.85 nM and a koff of 0.00013 s⁻¹.

For B4, the affinity in experiment [2], expressed as Kd, was 2730 nM. In addition, in experiment [3], the koff stood at 0.000486 s⁻¹.

In experiment [2], B5 yielded a Kd of 3800 nM. In addition, the koff in experiment [3] is 0.0069 s⁻¹.

In the experiment with 7B2, B6 returned a Kd of 634 nM and a koff of 0.000654 s⁻¹.

In turn, B7 came in with a Kd in experiment [4] of 583 nM. Besides, the koff in experiment [5] stood at 0.000534 s⁻¹.

These data come from article PMC8770954 (2021).
